Reference: patent US20230126400A1 (Alector, published 2023)

T1: human MS4A4A ECL1 peptide (amino acid residues 86-98) (human)
T1 construct: synthetic peptide
T1 peptide: CMASNTYGSNPIS

T2: human MS4A4A ECL2 peptide (amino acid residues 159-179), free (human)
T2 construct: synthetic peptide; also called huMS4A4A-ELC2 free-peptide
T2 peptide: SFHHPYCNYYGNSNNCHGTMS

T3: human MS4A6A ECL1 peptide (amino acid residues 68-85) (human)
T3 peptide: SASFSPNFTQVTSTLLNS

T4: human MS4A6A ECL2 peptide (amino acid residues 138-185) (human)
T4 peptide: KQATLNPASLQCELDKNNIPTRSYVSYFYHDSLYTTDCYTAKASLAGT

T5: BSA-conjugated human MS4A4A ECL2 peptide (amino acid residues 159-179) (human, conjugated to BSA (site not stated))
T5 construct: also called MS4A4A-ECL2 BSA conjugated peptide; BSA-MS4A4A-ELC2 peptide
T5 peptide: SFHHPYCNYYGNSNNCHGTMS


Columns and labels:
[1] = biological target: T1, human MS4A4A ECL1 peptide (amino acid …); assay: peptide ELISA
Description: (§1) Briefly, 96-well polystyrene plates were coated with 2 or 10 m/ml of synthetic free or BSA-conjugated peptides in coating buffer (0.05M carbonate buffer, pH9.6, Millipore Sigma Cat#C3041) overnight at 4° C. Coated plates were then blocked with ELISA diluent (PBS+0.5% BSA+0.05% Tween20) for 1-hour, washed 3×300 μL in PBST (PBS+0.05% Tween20, Thermo Cat#28352), and then the antibodies were added to the plate (50 μl/well). After 30 mins incubation (room temperature, with shaking), the plates were washed 3×300 μL in PBST. […] After a final set of washes (3×300 μL in PBST), 50 μL of TMB substrate (BioFx Cat#TMBW-1000-01) was added and the reaction was then quenched after 5-10 mins with 50 μL of stop solution (BioFx Cat#BSTP-1000-01). The quenched reaction wells were detected for absorbance at 650nm with a BioTek Synergy Microplate Reader using GENS 2.04 software.

[2] = biological target: T2, human MS4A4A ECL2 peptide (amino acid …); assay: peptide ELISA
Description: as §1

[3] = biological target: T6, human MS4A4A (human, UniProt Q96JQ5 1-239); assay: functional affinity, FACS titration on stably transfected 300.19 cells
Description: (§2) Determination of functional affinity/KD was carried out as follows. A constant number of 300.19 cells stably transfected with constructs expressing MS4A4A were blocked against non-specific binding, and then incubated with anti-MS4A4A antibodies at various concentrations predetermined to span from saturation-binding to no antibodies present for three hours on ice so the reaction is allowed to achieve near equilibrium. The cells were then washed and incubated with fluorophore-conjugated secondary antibodies, washed again, and signal determined by FACS Cantos (Becton Dickinson, Franklin Lake, N.J.). To determine functional/KD, the four-parameter dose response curve with variable slope was fitted onto the data by Prism (Graphpad, San Diego, Calif.), based on the multiple independent binding site model described by Drake and Klakamp, supra.

[4] = biological target: T7, cynomolgus (cyno) MS4A4A (cynomolgus); assay: as above
T7 construct: also called cy4A; Cyno 4A
Description: as §2

[5] = biological target: T3, human MS4A6A ECL1 peptide (amino acid …); assay: array SPR
[6] = biological target: T4, human MS4A6A ECL2 peptide (amino acid …); assay: array SPR
[7] = biological target: T6, human MS4A4A; assay: FACS, HEK293, supernatant
[8] = biological target: T7, cynomolgus (cyno) MS4A4A; assay: FACS, HEK293, supernatant
[9] = biological target: T1, human MS4A4A ECL1 peptide (amino acid …); assay: ELISA, hybridoma supernatant
Outline: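 Plates coated overnight at 4° C with 1-10 μg/ml free or BSA-conjugated peptide in carbonate buffer pH 9.6, blocked with PBS/0.5% BSA/0.05% Tween20. Antibodies (hybridoma supernatants) bound 30 min at room temperature with shaking; TMB development 5-10 min, stopped, absorbance read at 650 nm.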

[10] = biological target: T5, BSA-conjugated human MS4A4A ECL2 …; assay: ELISA, hybridoma supernatant
[11] = biological target: T2, human MS4A4A ECL2 peptide (amino acid …); assay: peptide ELISA, supernatant
[12] = biological target: T6, human MS4A4A; assay: FACS, K562 cells, supernatant; K562 cells overexpressing h4A
Description: (§3) Positive clones identified in Example 22 above were expanded and then rescreened for specificity against U937, K562, and/or 300.19 cells stably overexpressing human MS4A4A or cyno MS4A4A and parental U937, K562, and/or 300.19 cells. These experiments were performed using supernatants from hybridoma clones which had undergone further expansion after initial selection. Briefly, stably transfected cells were labeled with LIVE/DEAD Fixable Aqua Dead Cell Stain Kit (ThermoFisher Scientific Cat#L34957) on ice for 30 minutes. […] 2×10⁵ cells were aliquoted per well in 96-well U-bottom plates and incubated with 50 μl of culture supernatant on ice for 30 minutes. […] Following this secondary incubation, the cells were again washed twice with ice-cold FACS buffer and resuspended in a final volume of 200 μl of FACS buffer. Analysis was performed on a FACS Canto system (BD Biosciences), with gates drawn to exclude dead (Aqua-positive) cells.
(§4) The APC ratio was calculated for each antibody as follows. […] For cell lines overexpressing human MS4A4A (h4A) or cyno MS4A4A (cy4A), the ration was calculated by comparing the binding measured to the binding observed on the corresponding parental cell lines.

[13] = biological target: T6, human MS4A4A; assay: FACS, U937 cells, supernatant; U937 cells overexpressing h4A
Description: as §3, §4

[14] = biological target: T5, BSA-conjugated human MS4A4A ECL2 …; assay: ELISA, supernatant
Description: as §1, with “1-10 μg/ml” for “2 or 10 m/ml”, “C3041)” for “Cat#C3041)”, “[…]).” for “μl/well).”, “TMBW-1000-01)” for “Cat#TMBW-1000-01)”, “BSTP-1000-01).” for “Cat#BSTP-1000-01).”, “650 nm” for “650nm”

[15] = biological target: T7, cynomolgus (cyno) MS4A4A; assay: flow cytometry (anti-mouse IgG Fc-APC), hybridoma supernatant on 300.19 cells transfected with cyno MS4A4A
Description: Flow cytometry was performed as follows. Briefly, transiently-transfected cells were labeled with LIVE/DEAD Fixable Aqua Dead Cell Stain Kit (ThermoFisher Scientific Cat#L34957) on ice for 30 minutes. […] 2×10⁵ cells were aliquoted per well in 96-well U-bottom plates and incubated with 50 μl of culture supernatant on ice for 30 minutes. […] Following this secondary incubation, the cells were again washed twice with ice-cold FACS buffer and resuspended in a final volume of 200 μl of FACS buffer. Analysis was performed on a FACS Canto system (BD Biosciences), with gates drawn to exclude dead (Aqua-positive) cells.

Binder	binding result [1]	Kd [3] [nM]	Kd [4] [nM]	binding result [5]	binding result [6]	Human 4A:parental cell ratio [7] [ratio]	Cyno 4A:parental cell ratio [8] [ratio]	binding result [9]	binding result [10]	also measured
anti-MS4A4A antibody 4A-202, huIgG1 chimera (antibody, V domains shown) VH: QVQLQQSGAELARPGASVKLSCKASGYTFTNYWMQWVKQRPGQGLEWIGATHPGHGDTRYTQKFKGKATLSADKSSSTAYMQLSNLASEDSAVYYCAREEVYYGFRSYWYFDVWGAGTTVTVSS VL: not shown		3.5	1.8							
anti-MS4A4A antibody 4A-21, huIgG1 chimera (antibody, V domains shown, also called 4A-21 (hIgG1)) VH: QIQLVQSGPELKKPGETVKISCKASGYIFTSYGLSWVKQTPGKGLKWMGWINTYSGVPTYANDFKGRFAFSLETSASTTYLRINNLKNDDTATYFCARSLVDYWGQGTPLTVSS VL: not shown			7.6							
anti-MS4A4A antibody 4A-18, huIgG1 chimera (antibody, V domains shown, also called 4A-18 (hIgG1)) VH: QVQLQQPGTELVKPGASVKLSCKASGYTFTSYWIHWVKQRPGQGLEWIGNINPTNGGTNYNERFKSKATLTVDKSSSTAYMQLSSLTSEDSAVYYCARAYYYGSSLFAYWGQGTLVTVSA VL: DIVMTQSQKFMSTTVGDRVSITCKASQNVGTAVAWSQQKPGQSPKLLIYSASYRHTGVPDRFTGSGSGTDFTLTITNMQSEDLADYFCQQYSTYPWTFGGGTKLEIK		0.84	3.1							
anti-MS4A4A antibody 4A-204 (antibody, V domains shown, murine hybridoma antibody) VH: DVKLVESGGGLAKLGGSLKLSCAASGFTFSSFYMSWVRQTPEKRLELVAAINSNGGSTYYPDSVKGRFTISRDNVKNTLYLQMSSLKSEDTAMYYCARHLYYGLYYAMDYWGQGTSVTVSS VL: ENVLTQSPAIMSASPGEKVTMTCSASSSVSFMYWYQEKSSTSPKLWIYDTSKLASGVPGRFSGSGSGNSYSLTISSMGAEDVATYYCFQGSGFPLTFGSGTKLEIK	no binding									binding result [11]: no binding; fold increase in MFI [12]: > 2 fold; fold increase in MFI [13]: > 2 fold
anti-MS4A4A antibody 4A-14 (antibody, V domains shown, murine hybridoma antibody) VH: EVKLEESGGGLVQPGGSMKLSCAASGFTFSDAWLDWVRQSPEKGLEWVAEIRSKANDHATYYAESVKGRFTISRDDSKSRFYLQMNSLRAEDTGIYYCSVDYYGFFWGQGTLVTVSA VL: not shown				no binding (tested: 2000 nM)	no binding (tested: 2000 nM)	4.2	0.647	no binding		binding result [14]: binds; binding result [15]: no binding

More lines, main results first:

binding result [1]	Kd [3] [nM]	Kd [4] [nM]	binding result [5]	binding result [6]	Human 4A:parental cell ratio [7] [ratio]	Cyno 4A:parental cell ratio [8] [ratio]	binding result [9]	binding result [10]	Binder	also measured
no binding									anti-MS4A4A antibody 4A-202 (murine) (antibody, V domains shown, murine hybridoma antibody) VH: QVQLQQSGAELARPGASVKLSCKASGYTFTNYWMQWVKQRPGQGLEWIGATHPGHGDTRYTQKFKGKATLSADKSSSTAYMQLSNLASEDSAVYYCAREEVYYGFRSYWYFDVWGAGTTVTVSS VL: not shown	binding result [2]: binds
no binding									anti-MS4A4A antibody 4A-25 (antibody, V domains shown, purified murine antibody) VH: QVTLKESGPGILQPSQTLSLTCSFSGFSLRTSDMGVGWVRQPSGEGLEWLADIWWDDNKYYNPSLKSRLTISKDTSSNQVFLKITSVDTADTATYYCARRANYGNLFDYWGQGTAVTVSS VL: DIVMTQSLKFMSTSVGDRVSITCKASQNVRSAVAWYQQKPGQSPKVLIYWASNRHTGVPDRFTGSGSGTDFTLTISNVQSEDLADYFCLQHWNYLTFGSGTKLEIK	binding result [2]: binds
			no binding (tested: 2000 nM)	no binding (tested: 2000 nM)	4.83	1.67	no binding	no binding	anti-MS4A4A antibody 4A-17 (antibody, V domains shown, murine hybridoma antibody) VH: QVQLQQSAAELMKPGASVKLSCKATGYTFTGYWIEWLKQRPGHGLEWIGEILPGIGNTKYSEKFKGKATFTADTSSNTAYMQLSSLTTEDSAIYYCARSLLRAMDYWGQGTSVTVSS VL: QIVLTQSPAIMSASPGEKVTMTCSAISSISYMHWYQLKPGTSPKRWIYDTSKLASGVPARFSGSGSGTSYSLTISSMEAEDAATYYCHQRSSYPYTFGGGTKLEIK	
no binding	1.6		no binding (tested: 2000 nM)	no binding (tested: 2000 nM)				no binding	anti-MS4A4A antibody 4A-18 (murine) (antibody, IgG1, V domains shown, murine hybridoma antibody, msIgG1; also called 4A-18 (msIgG1)) VH: QVQLQQPGTELVKPGASVKLSCKASGYTFTSYWIHWVKQRPGQGLEWIGNINPTNGGTNYNERFKSKATLTVDKSSSTAYMQLSSLTSEDSAVYYCARAYYYGSSLFAYWGQGTLVTVSA VL: DIVMTQSQKFMSTTVGDRVSITCKASQNVGTAVAWSQQKPGQSPKLLIYSASYRHTGVPDRFTGSGSGTDFTLTITNMQSEDLADYFCQQYSTYPWTFGGGTKLEIK	
			no binding (tested: 2000 nM)	no binding (tested: 2000 nM)	9.58	3.96	no binding	no binding	anti-MS4A4A antibody 4A-12 (antibody, V domains shown, murine hybridoma antibody) VH: QVQLQQSGAELAQPGASVKMSCKASGYTFSSYWMYWVKQGPGQGLEWIGYINPGTGYTEYNQKFKDKATLTADKSSSTAYMQLSSLTSEDSAVYYCARFYYGSPYYYAMDYWGQGTSVTVSS VL: DIVMTQSQKFMSTSVGDRVTFTCKASQSVDTDVAWYQQKPGQSPKLLIYSASNRYTGVPDRFTGSGSGTDFTLTISNVQSEDLADYFCHQYNSYPLTFGAGTKLELK	
